In assay [1] the target is Bcr-Abl DH domain (residues 487–702) (UniProt P11274). As to the kind of experiment: NMR titration; GTPase titrated to 50 μM 15N-labeled DH domain; 50 mM HEPES pH 7, 50 mM NaCl, 1 mM DTT, 1 mM imidazole, 2 mM EDTA; [15N,1H]-TROSY; about 10 peaks fitted to a 1:1 binding model, mean Kd.
Assay [2] concerns the target Tyrosine phosphatase Sts1 (UniProt Q8BGG7). The experiment in a line: co-immunoprecipitation (anti-Bcr-Abl/Abl IP, Sts1 immunoblot, quantified). To be noted: BaF3 cells stably transduced with the Bcr-Abl variants; parent: est. 1.0; read off a plot. In general terms: In western blotting, separated proteins are transferred to a membrane and probed.

Sequence of Tyrosine phosphatase Sts1 (Q8BGG7 whole entry): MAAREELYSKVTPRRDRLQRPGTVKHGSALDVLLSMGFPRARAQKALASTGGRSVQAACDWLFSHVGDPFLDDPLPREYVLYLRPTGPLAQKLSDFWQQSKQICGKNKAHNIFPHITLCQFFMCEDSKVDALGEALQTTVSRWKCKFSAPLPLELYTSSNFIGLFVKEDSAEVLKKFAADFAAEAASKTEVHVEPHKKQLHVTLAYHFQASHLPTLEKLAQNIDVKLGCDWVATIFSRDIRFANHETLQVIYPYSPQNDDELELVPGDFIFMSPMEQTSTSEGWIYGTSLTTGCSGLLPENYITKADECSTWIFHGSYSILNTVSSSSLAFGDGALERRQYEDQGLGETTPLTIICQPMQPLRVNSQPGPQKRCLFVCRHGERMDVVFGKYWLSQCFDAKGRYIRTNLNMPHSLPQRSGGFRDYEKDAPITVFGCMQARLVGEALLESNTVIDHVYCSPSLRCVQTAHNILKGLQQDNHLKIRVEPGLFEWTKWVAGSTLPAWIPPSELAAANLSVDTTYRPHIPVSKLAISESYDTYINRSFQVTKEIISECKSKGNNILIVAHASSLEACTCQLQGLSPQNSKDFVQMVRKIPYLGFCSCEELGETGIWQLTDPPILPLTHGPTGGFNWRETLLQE
Sequence of Bcr-Abl DH domain (residues 487–702) (P11274 487-702): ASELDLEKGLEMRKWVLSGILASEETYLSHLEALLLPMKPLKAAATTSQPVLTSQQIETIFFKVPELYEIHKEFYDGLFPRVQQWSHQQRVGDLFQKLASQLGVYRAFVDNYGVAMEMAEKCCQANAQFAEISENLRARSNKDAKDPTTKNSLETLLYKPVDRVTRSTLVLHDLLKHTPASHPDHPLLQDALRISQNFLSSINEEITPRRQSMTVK
Sequence of Bcr-Abl p210 (from UniProt P11274) R726A; F1100E (P11274 whole entry, stated change not applied): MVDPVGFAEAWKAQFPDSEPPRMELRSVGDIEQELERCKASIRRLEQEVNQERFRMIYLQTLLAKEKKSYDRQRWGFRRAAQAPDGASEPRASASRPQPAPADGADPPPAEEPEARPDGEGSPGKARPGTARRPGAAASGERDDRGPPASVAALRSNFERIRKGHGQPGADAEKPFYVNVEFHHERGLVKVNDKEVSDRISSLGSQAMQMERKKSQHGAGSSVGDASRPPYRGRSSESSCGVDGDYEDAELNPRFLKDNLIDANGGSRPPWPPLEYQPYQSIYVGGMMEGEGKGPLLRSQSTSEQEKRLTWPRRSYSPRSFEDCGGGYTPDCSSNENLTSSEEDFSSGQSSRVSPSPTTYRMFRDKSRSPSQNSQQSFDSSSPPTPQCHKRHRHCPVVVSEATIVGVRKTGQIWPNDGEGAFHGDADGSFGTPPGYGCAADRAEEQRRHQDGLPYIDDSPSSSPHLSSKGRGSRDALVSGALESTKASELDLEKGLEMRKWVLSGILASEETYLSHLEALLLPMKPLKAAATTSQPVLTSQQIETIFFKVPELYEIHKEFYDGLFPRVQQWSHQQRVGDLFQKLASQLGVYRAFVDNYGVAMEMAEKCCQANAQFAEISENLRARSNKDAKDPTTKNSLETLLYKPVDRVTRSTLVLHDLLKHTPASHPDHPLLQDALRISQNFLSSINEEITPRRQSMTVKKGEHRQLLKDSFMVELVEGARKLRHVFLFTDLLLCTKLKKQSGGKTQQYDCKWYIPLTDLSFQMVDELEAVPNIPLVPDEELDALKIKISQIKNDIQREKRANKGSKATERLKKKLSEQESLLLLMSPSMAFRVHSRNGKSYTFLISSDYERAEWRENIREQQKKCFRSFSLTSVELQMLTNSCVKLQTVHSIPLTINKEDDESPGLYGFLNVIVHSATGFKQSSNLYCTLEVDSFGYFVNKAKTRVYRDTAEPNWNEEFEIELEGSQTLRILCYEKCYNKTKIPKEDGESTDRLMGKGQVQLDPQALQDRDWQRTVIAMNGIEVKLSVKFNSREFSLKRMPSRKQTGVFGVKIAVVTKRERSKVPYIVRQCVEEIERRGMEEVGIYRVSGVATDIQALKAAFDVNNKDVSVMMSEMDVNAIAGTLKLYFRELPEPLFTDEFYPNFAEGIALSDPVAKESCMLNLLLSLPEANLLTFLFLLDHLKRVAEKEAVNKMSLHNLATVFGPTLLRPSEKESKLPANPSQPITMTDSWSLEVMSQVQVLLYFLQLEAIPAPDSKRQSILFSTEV
Sequence of Bcr-Abl p210 (from UniProt P11274) F1100E (P11274 whole entry, stated change not applied): as above
Sequence of Bcr-Abl p210 (from UniProt P11274) R723A; K724A; F1100E (P11274 whole entry, stated change not applied): as above

In general, Kd refers to the concentration at which binding is half-saturated. Read a high Kd as lower affinity. With “Cdc42 (from UniProt P60953 1-191) (enzyme)”, in assay [1], the Kd worked out at 1900 µM.

On to “Bcr-Abl p210 (from UniProt P11274) R726A; F1100E”, for which, in assay [2], the ratio to parent is 0.5.

With “Bcr-Abl p210 (from UniProt P11274) R723A; K724A; F1100E”, in assay [2], the ratio to parent came to 0.24. “Bcr-Abl p210 (from UniProt P11274) F1100E”: the ratio to parent in assay [2] was 0.55. “RhoA (from UniProt P61586 1-193) (enzyme)” returned a Kd in assay [1] of 600 µM.

(Values after PMC5727386.)
